The target in experiment [1] is AnxA2 6x (AnxA2 A66E with K81A, E189K, R196S, K206A, K212S, E219K, alkylated at Cys-8) (human) (UniProt P07355). Nature of the experiment: cross-linking; Ca2+/membrane sample: AnxA2 (60 ug) bound to LUVs (100 nm, POPC:DOPC:Chol:POPS 40:20:20:20, 100 ug) with 1 mM CaCl2 in HBS pH 7.4, 0.3 mM Biotin3xNHSX-Linker added after 30 min for 30 min; 10% SDS-PAGE, Coomassie; oligomer bands above the dimer position quantified against the monomer band.

Experiment [2] has as its target AnxA2 10x (AnxA2 A66E 6x with R36S, V53A, T54A, K328A in addition, alkylated at Cys-8) (human) (UniProt P07355). Described as above.

In article PMC7291239 one finds crosslinked oligomers, percent of wild type (% of wild type) data, which are given here for two substances.

In turn, “AnxA2 6x (AnxA2 A66E with K81A, E189K, R196S, K206A, K212S, E219K, alkylated at Cys-8) (from UniProt P07355 21-339) (natural protein)” came in with a crosslinked oligomers, percent of wild type (% of wild type) in experiment [1] of 48.

Take “AnxA2 10x (AnxA2 A66E 6x with R36S, V53A, T54A, K328A in addition, alkylated at Cys-8) (from UniProt P07355 21-339) (natural protein)”: the crosslinked oligomers, percent of wild type (% of wild type) in experiment [2] is 33.
